Experimental data reported in patent US5550216A, “Gelatinase A inhibitor, and analytical reagent thereof for the determination of gelatinase A” (Oriental Yeast Co., Ltd., priority 1993, dated 1996).
Blank lines part the entries; values can stand above or below the molecule they belong to.

Assays:
[1] = target: T1, gelatinase A (Homo sapiens, UniProt P08253); experiment: Hydrolysis of synthetic peptide βAP10-20 by activated gelatinase A (reverse phase HPLC), enzyme kinetic analysis; format: biochemical; details: hydrolysis of β-AP10-20 by APMA/stromelysin activated gelatinase A; from slope of Dixon plot (1/v vs (I))
T1 construct: made in house; host or cells: Natural (endogenous) secretion of the T98G human glioblastoma cell line
T1 sequence (P08253 110-660): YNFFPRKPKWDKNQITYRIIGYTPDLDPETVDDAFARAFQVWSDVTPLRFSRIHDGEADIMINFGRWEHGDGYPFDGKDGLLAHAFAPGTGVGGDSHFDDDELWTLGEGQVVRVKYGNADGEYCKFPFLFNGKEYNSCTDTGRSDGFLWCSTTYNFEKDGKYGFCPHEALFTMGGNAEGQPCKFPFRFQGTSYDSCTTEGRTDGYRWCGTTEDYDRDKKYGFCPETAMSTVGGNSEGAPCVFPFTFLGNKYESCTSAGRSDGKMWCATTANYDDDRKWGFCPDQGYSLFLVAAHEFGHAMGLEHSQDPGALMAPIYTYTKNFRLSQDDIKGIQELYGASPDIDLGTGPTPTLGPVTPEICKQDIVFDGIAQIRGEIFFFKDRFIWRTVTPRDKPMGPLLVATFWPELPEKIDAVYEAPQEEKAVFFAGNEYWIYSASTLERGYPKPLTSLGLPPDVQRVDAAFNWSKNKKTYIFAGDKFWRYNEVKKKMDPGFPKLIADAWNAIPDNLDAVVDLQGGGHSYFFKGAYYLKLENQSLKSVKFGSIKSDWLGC
Protocol: (§1) FIGS. 5 (A) and (B) show the degradation of synthetic peptide βAP10-20by gelatinase A. By heparin affinity chromatography according to the method by (Kelkenbrock), TIMP-2-free progelatinase A was isolated from TIMP-2 binding form. Proenzyme (1 μg) was activated by incubating for 1 hour at 37° C. in 20 mMTris-HCl (pH 7.5) containing 10 mMCa^2+ with 1 mMAPMA and 0.25 μg of rat stromelysin. Then, the activated enzyme was incubated for 6 hours at 37° C. in the absence or presence of 5 μg of 100-kDa APP in 50 μl of Tris-HCl/Ca^2+ buffer with 20 nmol (28 μg) of synthetic peptide β-AP10-20 (cf. FIG. 2D). Then the mixture was admixed with 0.5 ml of 0.05% trifluoroacetic acid (TFA), and loaded to Cosmosil 5C18 reverse phase HPLC column (4.6×150 mm) (Nacalai Tesque, Kyoto, Japan). The column was eluted at the flow rate of 0.5 ml/min with 15 ml of 0 to 80% linear gradient acetonitrile in 0.05% TFA. The amino acid sequence of the […] was analyzed by a protein sequencer. As previously reported, rat stromelysin was purified with the proenzyme form and activated by APMA. Under the condition described above, stromelysin hardly hydrolyzed βAP10-20.
(§2) FIG. 5(A) and (B) represent enzyme kinetic analysis of the inhibition of gelatinase A activity by 100-bDa APP. […] The maximum concentration of 100-kDa APP ([…]) corresponded to about 910 nM. […]

[2] = target: T2, human progelatinase A (Homo sapiens, UniProt P08253); experiment: Reverse zymography of gelatinase A inhibitor on gelatine-containing SDS polyacrylamide gel; format: biochemical; details: 0.2 μg/lane protein; gel incubated with 1 μg/ml human progelatinase A and 1 mM APMA
T2 construct: obtained from the culture supernatant of T98G human glioblastoma cell line; made in house; host or cells: Natural (endogenous) secretion of the T98G human glioblastoma cell line, purified from the culture supernatant
T2 sequence (P08253 110-660): T1 sequence (P08253 110-660)
Source text: The large triangle arrow represents 100-kDa inhibitor. Three small triangle arrows represent TIMP (28 kDa), unidentified 22-kDa inhibitor and TIMP-2 (20 kDa). The bands of negative image (white lines) indicate gelatine degradation activity secreted by tumor cells. b represents the results of non-reductive SDS-PAGE of purified 100-kDa inhibitor, while c represents the results of SDS-PAGE (lanes 1 to 3) and the reverse zymograms of 100-kDa inhibitor (lane 1, 2, 4 and 5) and human TIMP (lane 3 and 6). Equal amount (0.2 μg/lane) of the protein was analyzed under reductive condition (lanes 2 and 5) and non-reductive condition (lane 1, 3, 4 and 6). […] 100-kDa inhibitor (200 μg) was incubated with 0.3 μg of endoproteinase Lys-C (Sigma, St. Louis, Mo.) for 60 minutes at 30° C. in 60 μl of 50 mM Tris-HCl (pH 7.5) containing 2M urea and 1M NaCl, and a part of digestion products were subjected to electrophoresis. As a result, a peptide from 439V through 687 k of the amino acid sequence in FIG. 1 was obtained.
The supernatant of EJ-1 cell culture which had been incubated for 2 days in serum-free RPMI1640 medium was used for the preparation. The reverse zympgraphy of gelatinase A inhibitor was conducted on polyacrylamide gel containing 0.1% SDS and 1 mg/ml of gelatine by a modified Herroh's method. […]

[3] = substrate: CC(C)C[C@H](NC(=O)[C@H](CCCCN)NC(=O)[C@H](CCC(N)=O)NC(=O)[C@H](Cc1c[nH]cn1)NC(=O)[C@H](Cc1c[nH]cn1)NC(=O)[C@@H](NC(=O)[C@H](CCC(=O)O)NC(=O)[C@@H](N)Cc1ccc(O)cc1)C(C)C)C(=O)N[C@H](C(=O)N[C@@H](Cc1ccccc1)C(=O)N[C@@H](Cc1ccccc1)C(=O)O)C(C)C; experiment: Hydrolysis of synthetic peptide βAP10-20 by activated gelatinase A (reverse phase HPLC), enzyme kinetic analysis; format: biochemical, human; details: other: hydrolysis of βAP10-20 by activated gelatinase A; Lineweaver-Burk plots, 30 to 400 μM substrate; pH 7.5
Protocol: as §1, §2

- Ki [1]: 40 nM
Molecule: 100-kDa APP: secretory form of APP (gelatinase A inhibition protein), 100k, from EJ-1 culture fluid; 18L through 687K of APP770
- inhibitor bands on the reverse zymograms [2]: markedly stained gelatine bands (inhibitor bands)

Molecule: human TIMP: known gelatinase inhibitor (28 kDa) used as comparison in reverse zymography [reference compound]
- inhibitor bands on the reverse zymograms [2]: markedly stained gelatine bands (inhibitor bands)

B1: gelatinase A (Homo sapiens) (protein)
chain: T1 sequence (P08253 110-660)
notes: made in house; host or cells: Natural (endogenous) secretion of the T98G human glioblastoma cell line
- Km [3]: 130 µM
- Vmax [3]: 3.9 nmol/h
